Experimental findings from IntAct's records for PubMed 15165234 are described below.

To fix the notation:
B1: Nitrogen regulatory protein P-II (Synechococcus elongatus (strain PCC 7942)), P0A3F4 (parent)
chain: MKKIEAIIRPFKLDEVKIALVNAGIVGMTVSEVRGFGRQKGQTERYRGSEYTVEFLQKLKLEIVVEDAQVDTVIDKIVAAARTGEIGDGKIFVSPVDQTIRIRTGEKNADAI
partner: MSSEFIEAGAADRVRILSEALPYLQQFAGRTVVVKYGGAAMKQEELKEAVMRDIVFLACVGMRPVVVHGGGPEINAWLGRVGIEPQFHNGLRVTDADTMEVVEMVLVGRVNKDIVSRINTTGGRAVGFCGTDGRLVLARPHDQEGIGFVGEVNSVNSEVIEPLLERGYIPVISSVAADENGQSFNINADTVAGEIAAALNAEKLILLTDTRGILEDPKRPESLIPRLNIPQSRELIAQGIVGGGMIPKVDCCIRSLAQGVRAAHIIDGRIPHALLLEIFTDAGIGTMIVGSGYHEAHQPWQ

The variants in the assay derive from B1. The conditions noted are these: with argb_syne7 argB.
Turning to S49A, the “effect of a mutation on the interaction” value is “decreasing interaction”.

Take S49E: the “effect of a mutation on the interaction” value was “decreasing interaction”.
